Experimental data published in US20250144186A1, “NOVEL THERAPEUTIC USES OF GARDNERELLA ENDOLYSINS” (priority 2022, published 2025).

Columns and labels:
Gardnerella swidsinskii = assay: microbe, parasite or virus in culture; type: cell-based; conditions: for MIC before passaging: 48 h incubation
Procedure: (§1) The minimum inhibitory concentration (MIC), which is a standard measure of the activity of antimicrobials, was determined according to the Clinical and Laboratory Standards Institute protocol (2018) Methods for Antimicrobial Susceptibility Testing of Anaerobic Bacteria (Carpenter et al., 2018). […] Controls for growth in the absence of antimicrobials were also included. OD600 was recorded by a microplate reader (Tecan, Grodig, Austria) after incubation at 37° C. for 48 h or, for some fast-growing strains, after incubation for 24 h. Absence of growth was defined as OD600≤0.14. […] MIC readout and MBC99.5 spotting were performed after 72 h incubation for H2B10B11.
(§2) However, topical intravaginal antibiotic administration is recommended for BV therapy, which allows to reach concentrations of active ingredients in the mg/mL range. […] Abbreviations: n.d., not determined; SJHB, St. Jan Hospital Bruges.
(§3) MIC90 is defined as the MIC value for 90% of the tested strains. For PM-477 (H2B10), the resistance breakpoint is not defined, therefore a “% resistant” is not defined (n.d.).

Gardnerella vaginalis = assay: microbe, parasite or virus in culture; type: cell-based; conditions: for MIC before passaging: 48 h incubation
Procedure: as §1, §2, §3

Gardnerella leopoldii = assay: MIC / MBC99.5 assessment in suspension; type: cell-based
Procedure: as §1, §2, §3

Gardnerella piotii = assay: MIC / MBC99.5 assessment in suspension; type: cell-based
Procedure: as §1, §2, §3

All Gardnerella = assay: MIC assessment in suspension, panel of 22 strains; type: cell-based, Gardnerella spp.; conditions: N=22 strains
Procedure: as §1, §2, §3

[1] = system: Gardnerella strains grown as biofilm; assay: MBEC on pre-formed biofilms, summary over ancestor strains; type: cell-based, Gardnerella spp.; conditions: 40-72 h old pre-formed biofilms
Procedure: Gardnerella spp. (see figures for strain specification) was resuspended in brain heart infusion broth supplemented with 2% (w/v) gelatin, 0.5% yeast extract (w/v), 0.1% starch (w/v) and 0.25% glucose (w/v) (sBHIG). Passaged strains were resuspended in unbuffered NYCB supplemented with 1% glucose (w/v) (sNYCB). The OD600 was set to 0.1 (approx. 10^7-10^8 CFU/mL) and the cell suspension was diluted 1:10 in growth medium as input for biofilm formation. A total of 200 μL of the respective bacterial suspensions was added to 96-well flat bottom plates (tissue-culture treated, Sigma-Aldrich). The biofilms were grown under anaerobic conditions at 37° C. for 40 to 72 hours, depending on the isolate. Subsequently, the supernatant was removed, and the biofilm was treated with antimicrobials dissolved in sBHIG (at pH 5 for treatment with PM-477 (H2B10), and unbuffered for treatment with antibiotics) in 100 μL and incubated anaerobically at 37° C. for another 24 hours. After the treatment, the biofilms were washed twice with 200 μL 1x PBS and dissolved by vigorous pipetting (40x up and down). Serial dilutions of the dissolved cells were spotted on chocolate agar plates. The plates were incubated anaerobically for two to three days and the minimum biofilm eradication concentration (MBEC) of the endolysin or the antibiotics in use were calculated. […]

[2] = system: passaged G. vaginalis biofilm; assay: MBEC on biofilms of passaged strains; type: cell-based, Gardnerella vaginalis
Procedure: Gardnerella spp. (see figures for strain specification) was resuspended in brain heart infusion broth supplemented with 2% (w/v) gelatin, 0.5% yeast extract (w/v), 0.1% starch (w/v) and 0.25% glucose (w/v) (sBHIG). Passaged strains were resuspended in unbuffered NYCB supplemented with 1% glucose (w/v) (sNYCB). The OD600 was set to 0.1 (approx. 10^7-10^8 CFU/mL) and the cell suspension was diluted 1:10 in growth medium as input for biofilm formation. A total of 200 μL of the respective bacterial suspensions was added to 96-well flat bottom plates (tissue-culture treated, Sigma-Aldrich). The biofilms were grown under anaerobic conditions at 37° C. for 40 to 72 hours, depending on the isolate. Subsequently, the supernatant was removed, and the biofilm was treated with antimicrobials dissolved in sBHIG (at pH 5 for treatment with PM-477 (H2B10), and unbuffered for treatment with antibiotics) in 100 μL and incubated anaerobically at 37° C. for another 24 hours. After the treatment, the biofilms were washed twice with 200 μL 1x PBS and dissolved by vigorous pipetting (40x up and down). Serial dilutions of the dissolved cells were spotted on chocolate agar plates. The plates were incubated anaerobically for two to three days and the minimum biofilm eradication concentration (MBEC) of the endolysin or the antibiotics in use were calculated.
All MICs determined after 48 h of incubation.

[3] = system: G. vaginalis (ATCC 14018T); assay: Serial passaging for resistance formation with PM-477; type: cell-based, Gardnerella vaginalis; conditions: G. vaginalis (ATCC 14018T) passaged 25 times with PM-477 (H2B10)
Procedure: The final volume of the reaction was 100 µL and the reactions were performed in triplicate in 384-well plates. The OD600 was measured using a microplate reader (Tecan, Grodig, Austria) to generate timepoint 0 h baseline values. The reactions were incubated anaerobically for 24 h, then the OD600 was measured again, and the MIC was measured as the lowest concentration with OD600<0.14. […] This process was repeated for a maximum of 25 rounds. In each round, the input CFU/mL was determined by quantitative plating.
In parallel, one representative of G. vaginalis (ATCC 14018^T) was passaged 25 times with PM-477 (H2B10).

[4] = Gardnerella swidsinskii, N=4 strains
[5] = Gardnerella leopoldii, N=3 strains
[6] = Gardnerella piotii, N=7 strains

B1: PM-477: genetically engineered recombinant Gardnerella-specific endolysin, amino acid sequence SEQ ID NO: 1, His-tag cleaved off (protein)
chain: SKRGIDVSEWQGDIDFNAVKASGVEFVIIRAGYGIGCKDKWFEQNYRKAKTCGLDVGAYWYSYANSGFEAAEEAQSCVNMLSGKSFEYPVYFDLEEKSQLNRGRAFCDSLITGFCNKLESCGYYAGFYTSLSTANNLVSAHVRNRYALWIAQWNTHCSYQGSYGLWQYSSSGSVPGVAGRVDMDYAYVDYPSIIKNVGLNGYKNGGSYTAPQISSIDEVAREVINGDWGNGNERKQRLTSAGYDYASVQNKVNELLGVKAYRKSVDELAREVIRGTWGNGSTRKQRLTQAGYDYNAVQKRVNELL
modifications: His-tag cleaved off; H2B10
MBC99.5 (Gardnerella swidsinskii; G. swidsinskii (BV7) UGent BV7.1): 0.25 µg/mL | MIC (Gardnerella swidsinskii; G. swidsinskii (BV7) UGent BV7.1, suspension): 0.25 µg/mL | MBC99.5 (Gardnerella swidsinskii; G. swidsinskii (BV139) UGent BV139.3): 0.125 µg/mL | MIC before passaging (Gardnerella swidsinskii; G. swidsinskii (GS 9838-1T)): 0.03 µg/mL | MBC99.5 (Gardnerella swidsinskii; G. swidsinskii (Gs23) GS 10234): 0.125 µg/mL | MIC (Gardnerella swidsinskii; G. swidsinskii (Gs23) GS 10234, suspension): 0.063 µg/mL | MBC99.5 (Gardnerella swidsinskii; G. swidsinskii (Gs24) GS 9838-1(T)): 0.06 µg/mL | MIC (Gardnerella swidsinskii; G. swidsinskii (Gs24) GS 9838-1(T), suspension): 0.03 µg/mL | MIC before passaging (Gardnerella swidsinskii; G. swidsinskii (UGent BV 7.1)): 0.25 µg/mL | MIC90 (Gardnerella swidsinskii; [4]): 0.25 µg/mL | MIC Range (Gardnerella swidsinskii; [4]): 0.03 to 0.25 µg/mL | MIC before passaging (Gardnerella vaginalis; G. vaginalis (ATCC 14018T)): 0.06 µg/mL | MBC99.5 (Gardnerella vaginalis; G. vaginalis (BV50) UGent BV50.1): 1 µg/mL | MIC (Gardnerella vaginalis; G. vaginalis (BV50) UGent BV50.1, suspension): 0.5 µg/mL | MBC99.5 (Gardnerella vaginalis; G. vaginalis (BV111) UGent BV111.5): 0.5 µg/mL | MIC (Gardnerella vaginalis; G. vaginalis (BV111) UGent BV111.5, suspension): 0.25 µg/mL | MBC99.5 (Gardnerella vaginalis; G. vaginalis (FB049) UGent FB049-01): 0.25 µg/mL | MIC (Gardnerella vaginalis; G. vaginalis (FB049) UGent FB049-01, suspension): 0.25 µg/mL | MBC99.5 (Gardnerella vaginalis; G. vaginalis (FB061) UGent FB061-03): 2 µg/mL | MIC (Gardnerella vaginalis; G. vaginalis (FB061) UGent FB061-03, suspension): 0.5 µg/mL | MBC99.5 (Gardnerella vaginalis; G. vaginalis (Gv1) UGent 09.07): 1 µg/mL | MIC (Gardnerella vaginalis; G. vaginalis (Gv1) UGent 09.07, suspension): 0.25 µg/mL | MBC99.5 (Gardnerella vaginalis; G. vaginalis (Gv5) UGent 09.01): 0.125 µg/mL | MIC (Gardnerella vaginalis; G. vaginalis (Gv5) UGent 09.01, suspension): <0.03 µg/mL | MBC99.5 (Gardnerella vaginalis; G. vaginalis (Gv8) UGent 25.49): 0.125 µg/mL | MIC (Gardnerella vaginalis; G. vaginalis (Gv8) UGent 25.49, suspension): 0.03 µg/mL | MIC (Gardnerella vaginalis; G. vaginalis (Gv9) ATCC 14018(T), suspension): 0.06 µg/mL | MBC99.5 (Gardnerella vaginalis; G. vaginalis (Gv9) ATCC 14018(T), reduces CFU by 99.5% within 24 h): 0.25 µg/mL | MIC before passaging (Gardnerella vaginalis; G. vaginalis (UGent 09.07)): 0.25 µg/mL | MIC before passaging (Gardnerella vaginalis; G. vaginalis (UGent BV50)): 0.5 µg/mL | MIC Range (Gardnerella vaginalis; Gardnerella vaginalis, N=8 strains): <0.03 to 0.5 µg/mL | MIC90 (Gardnerella vaginalis; Gardnerella vaginalis, N=8 strains, MIC value for 90% of the tested strains): 0.5 µg/mL | MBC99.5 (Gardnerella leopoldii; G. leopoldii (BV13) UGent BV13.2): 2 µg/mL | MIC (Gardnerella leopoldii; G. leopoldii (BV13) UGent BV13.2, suspension): 0.5 µg/mL | MBC99.5 (Gardnerella leopoldii; G. leopoldii (BV217) UGent BV217.1): 1 µg/mL | MIC (Gardnerella leopoldii; G. leopoldii (BV217) UGent BV217.1, suspension): 0.25 µg/mL | MBC99.5 (Gardnerella leopoldii; G. leopoldii (Gl11) UGent 09.48): 0.5 µg/mL | MIC (Gardnerella leopoldii; G. leopoldii (Gl11) UGent 09.48, suspension): 0.125 µg/mL | MIC90 (Gardnerella leopoldii; [5]): 0.5 µg/mL | MIC Range (Gardnerella leopoldii; [5]): 0.125 to 0.5 µg/mL | MBC99.5 (Gardnerella piotii; G. piotii (BV049) UGent BV049.1): 1 µg/mL | MIC (Gardnerella piotii; G. piotii (BV049) UGent BV049.1, suspension): 1 µg/mL | MBC99.5 (Gardnerella piotii; G. piotii (BV140) UGent BV140.2): 2 µg/mL | MIC (Gardnerella piotii; G. piotii (BV140) UGent BV140.2, suspension): 1 µg/mL | MBC99.5 (Gardnerella piotii; G. piotii (BV154) UGent BV154.1): 1 µg/mL | MIC (Gardnerella piotii; G. piotii (BV154) UGent BV154.1, suspension): 0.5 µg/mL | MBC99.5 (Gardnerella piotii; G. piotii (FB041) UGent FB041): 1 µg/mL | MIC (Gardnerella piotii; G. piotii (FB041) UGent FB041, suspension): 0.5 µg/mL | MBC99.5 (Gardnerella piotii; G. piotii (Gp17) UGent 18.01(T)): 4 µg/mL | MIC (Gardnerella piotii; G. piotii (Gp17) UGent 18.01(T), suspension): 1 µg/mL | MBC99.5 (Gardnerella piotii; G. piotii (Gp22) UGent 21.28): 2 µg/mL | MIC (Gardnerella piotii; G. piotii (Gp22) UGent 21.28, suspension): 1 µg/mL | MBC99.5 (Gardnerella piotii; G. piotii (P80275) UGent P80275): 1 µg/mL | MIC (Gardnerella piotii; G. piotii (P80275) UGent P80275, suspension): 0.5 µg/mL | MIC before passaging (Gardnerella piotii; G. piotii (UGent 18.01T), 48 h incubation): 1 µg/mL | MIC90 (Gardnerella piotii; [6]): 1 µg/mL | MIC Range (Gardnerella piotii; [6]): 0.5 to 1 µg/mL | MIC90 (All Gardnerella): 1 µg/mL | MIC Range (All Gardnerella; listed as PM-477 (H2B10)): <0.03-1^ μg/mL | MBEC, range over strains [1]: <2 to 32 µg/mL | MBEC passaged ([2]; G. vaginalis (ATCC 14018T) passaged with MDZ): 2 to 8 µg/mL | MBEC passaged ([2]; G. vaginalis (UGent 09.07) passaged 8 times with MDZ-OH): 2 to 4 µg/mL | MBEC passaged ([2]; G. vaginalis (UGent BV50) passaged with MDZ-OH): 1 to 8 µg/mL | MIC after 25 rounds of passaging [3]: 8 µg/mL
